{
  "source": "the supplement of paper PMC9112550",
  "about": "“Optimization of the antimicrobial peptide Bac7 by deep mutational scanning” (BMC Biology, 2022);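 note: peptides expressed intracellularly from a pBAD plasmid library in pooled LB shake-flask culture, induced with 0.3% L-arabinose, DNA abundance read by NGS, three biological replicates, DESeq2 with apeglm shrinkage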",
  "data": [
    {"tested_on": "Escherichia coli TOP10", "experiment": "shrunken log2 fold change of peptide-encoding DNA abundance (4.5 h post-induction vs induction); higher = less antimicrobial activity (less host growth inhibition)", "settings": "time post-induction: 4.5 h; library: site-saturation at positions 5, 18, 19, 20", "values": [
      {"sequence": "RRIRSRPPRLPRPRPRPTNMPRP", "shrunken log2 fold change": -0.465},
      {"sequence": "RRIRYRPPRLPRPRPRPWDVPRP", "shrunken log2 fold change": -0.114},
      {"sequence": "RRIRVRPPRLPRPRPRPAPNPRP", "shrunken log2 fold change": 0.334},
      {"sequence": "RRIRWRPPRLPRPRPRPCNPPRP", "shrunken log2 fold change": -0.00159},
      {"sequence": "RRIRVRPPRLPRPRPRPIICPRP", "shrunken log2 fold change": -0.448},
      {"sequence": "RRIRHRPPRLPRPRPRPFLTPRP", "shrunken log2 fold change": -0.217},
      {"sequence": "RRIRFRPPRLPRPRPRPDMEPRP", "shrunken log2 fold change": -0.16},
      {"sequence": "RRIRSRPPRLPRPRPRPALVPRP", "shrunken log2 fold change": 0.398},
      {"sequence": "RRIRARPPRLPRPRPRPIGWPRP", "shrunken log2 fold change": 0.488},
      {"sequence": "RRIRPRPPRLPRPRPRPDEYPRP", "shrunken log2 fold change": -0.015},
      {"sequence": "RRIRGRPPRLPRPRPRPDEIPRP", "shrunken log2 fold change": -0.0447},
      {"sequence": "RRIRSRPPRLPRPRPRPNFAPRP", "shrunken log2 fold change": 0.245},
      {"sequence": "RRIRWRPPRLPRPRPRPNVGPRP", "shrunken log2 fold change": -0.129},
      {"sequence": "RRIRGRPPRLPRPRPRPLLAPRP", "shrunken log2 fold change": 2.21},
      {"sequence": "RRIRMRPPRLPRPRPRPVWIPRP", "shrunken log2 fold change": -0.0455},
      {"sequence": "RRIRYRPPRLPRPRPRPWYYPRP", "shrunken log2 fold change": -0.00865},
      {"sequence": "RRIRLRPPRLPRPRPRPFSEPRP", "shrunken log2 fold change": -0.0881},
      {"sequence": "RRIRRRPPRLPRPRPRPEHFPRP", "shrunken log2 fold change": 0.301},
      {"sequence": "RRIRTRPPRLPRPRPRPVLCPRP", "shrunken log2 fold change": 0.0726},
      {"sequence": "RRIRCRPPRLPRPRPRPMEGPRP", "shrunken log2 fold change": -0.00776},
      {"sequence": "RRIRPRPPRLPRPRPRPIYWPRP", "shrunken log2 fold change": 0.00563},
      {"sequence": "RRIRGRPPRLPRPRPRPWLWPRP", "shrunken log2 fold change": 0.0131},
      {"sequence": "RRIRNRPPRLPRPRPRPQCMPRP", "shrunken log2 fold change": 2.42},
      {"sequence": "RRIRGRPPRLPRPRPRPIPMPRP", "shrunken log2 fold change": 0.372},
      {"sequence": "RRIRFRPPRLPRPRPRPAGWPRP", "shrunken log2 fold change": 0.674},
      {"sequence": "RRIRCRPPRLPRPRPRPVIKPRP", "shrunken log2 fold change": -0.0948},
      {"sequence": "RRIRGRPPRLPRPRPRPDGIPRP", "shrunken log2 fold change": -0.0219},
      {"sequence": "RRIRQRPPRLPRPRPRPEIEPRP", "shrunken log2 fold change": -0.00695},
      {"sequence": "RRIRERPPRLPRPRPRPYWSPRP", "shrunken log2 fold change": -0.568},
      {"sequence": "RRIRIRPPRLPRPRPRPNDFPRP", "shrunken log2 fold change": -0.276},
      {"sequence": "RRIRQRPPRLPRPRPRPDSPPRP", "shrunken log2 fold change": 0.0174},
      {"sequence": "RRIRFRPPRLPRPRPRPEHMPRP", "shrunken log2 fold change": 0.0146},
      {"sequence": "RRIRFRPPRLPRPRPRPYLMPRP", "shrunken log2 fold change": -0.687},
      {"sequence": "RRIRLRPPRLPRPRPRPAVTPRP", "shrunken log2 fold change": -0.0968},
      {"sequence": "RRIRSRPPRLPRPRPRPTRQPRP", "shrunken log2 fold change": 0.215},
      {"sequence": "RRIRVRPPRLPRPRPRPCAKPRP", "shrunken log2 fold change": 0.128},
      {"sequence": "RRIRVRPPRLPRPRPRPIVHPRP", "shrunken log2 fold change": -0.00223},
      {"sequence": "RRIRARPPRLPRPRPRPHCGPRP", "shrunken log2 fold change": 0.507},
      {"sequence": "RRIRMRPPRLPRPRPRPIHCPRP", "shrunken log2 fold change": -0.105},
      {"sequence": "RRIRPRPPRLPRPRPRPHPYPRP", "shrunken log2 fold change": -0.576},
      {"sequence": "RRIRIRPPRLPRPRPRPQMMPRP", "shrunken log2 fold change": -0.622},
      {"sequence": "RRIRERPPRLPRPRPRPHEPPRP", "shrunken log2 fold change": -0.0545},
      {"sequence": "RRIRERPPRLPRPRPRPYWQPRP", "shrunken log2 fold change": -0.172},
      {"sequence": "RRIRVRPPRLPRPRPRPDAQPRP", "shrunken log2 fold change": -0.136},
      {"sequence": "RRIRGRPPRLPRPRPRPCEMPRP", "shrunken log2 fold change": 0.852},
      {"sequence": "RRIRHRPPRLPRPRPRPWFPPRP", "shrunken log2 fold change": -0.379},
      {"sequence": "RRIRPRPPRLPRPRPRPTAQPRP", "shrunken log2 fold change": 0.357},
      {"sequence": "RRIRHRPPRLPRPRPRPLAMPRP", "shrunken log2 fold change": 0.287},
      {"sequence": "RRIRLRPPRLPRPRPRPRFTPRP", "shrunken log2 fold change": 0.0165},
      {"sequence": "RRIRMRPPRLPRPRPRPLRHPRP", "shrunken log2 fold change": 1.98},
      {"sequence": "RRIRWRPPRLPRPRPRPNMIPRP", "shrunken log2 fold change": -0.114},
      {"sequence": "RRIRKRPPRLPRPRPRPEYTPRP", "shrunken log2 fold change": 0.0243},
      {"sequence": "RRIRVRPPRLPRPRPRPMNEPRP", "shrunken log2 fold change": -0.111},
      {"sequence": "RRIRARPPRLPRPRPRPVLSPRP", "shrunken log2 fold change": 0.26},
      {"sequence": "RRIRQRPPRLPRPRPRPWDGPRP", "shrunken log2 fold change": 0.199},
      {"sequence": "RRIRFRPPRLPRPRPRPRVDPRP", "shrunken log2 fold change": -0.055},
      {"sequence": "RRIRRRPPRLPRPRPRPQDEPRP", "shrunken log2 fold change": -0.0204},
      {"sequence": "RRIRGRPPRLPRPRPRPKPYPRP", "shrunken log2 fold change": 0.332},
      {"sequence": "RRIRPRPPRLPRPRPRPTFNPRP", "shrunken log2 fold change": -0.155},
      {"sequence": "RRIRVRPPRLPRPRPRPGDFPRP", "shrunken log2 fold change": 0.0156},
      {"sequence": "RRIRQRPPRLPRPRPRPPSQPRP", "shrunken log2 fold change": 0.0863},
      {"sequence": "RRIRIRPPRLPRPRPRPDIFPRP", "shrunken log2 fold change": -0.828},
      {"sequence": "RRIRMRPPRLPRPRPRPDIWPRP", "shrunken log2 fold change": 1.41},
      {"sequence": "RRIRFRPPRLPRPRPRPDVWPRP", "shrunken log2 fold change": 0.128},
      {"sequence": "RRIRLRPPRLPRPRPRPAQFPRP", "shrunken log2 fold change": 0.28},
      {"sequence": "RRIRLRPPRLPRPRPRPLEMPRP", "shrunken log2 fold change": 0.203},
      {"sequence": "RRIRWRPPRLPRPRPRPHLDPRP", "shrunken log2 fold change": -0.0108},
      {"sequence": "RRIRIRPPRLPRPRPRPHYMPRP", "shrunken log2 fold change": -0.943},
      {"sequence": "RRIRNRPPRLPRPRPRPNVPPRP", "shrunken log2 fold change": -0.128},
      {"sequence": "RRIRSRPPRLPRPRPRPVLDPRP", "shrunken log2 fold change": -0.058},
      {"sequence": "RRIRFRPPRLPRPRPRPPRSPRP", "shrunken log2 fold change": 0.488},
      {"sequence": "RRIRMRPPRLPRPRPRPRERPRP", "shrunken log2 fold change": 0.623},
      {"sequence": "RRIRLRPPRLPRPRPRPMCCPRP", "shrunken log2 fold change": -0.394},
      {"sequence": "RRIRARPPRLPRPRPRPKCHPRP", "shrunken log2 fold change": 0.161},
      {"sequence": "RRIRHRPPRLPRPRPRPLNMPRP", "shrunken log2 fold change": -1.26}
    ]}
  ]
}
